# Source: patent publication US20230212319A1, “NOVEL ANTIGEN BINDING DOMAINS AND SYNTHETIC ANTIGEN RECEPTORS INCORPORATING THE SAME” (University of Southern California, priority 2020, published 2023)
# Legend:
# [1] = test system: Raji-CD22-KO; assay: JNG NFAT-GFP assay, co-culture with Raji-CD22-KO cells; assay type: cell-based
# [2] = test system: L363 cells; assay: JNG assay, co-culture with L363 cells; assay type: cell-based; settings: co-culture with L363
# Method in brief: (§1)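 Jurkat-NFAT-GFP (JNG) cells stably expressing SAR constructs via lentiviral transduction and puromycin/blasticidin selection were cocultured with target cells at E:T ~1:2 for ~4–18 h. NFAT-driven GFP was measured by FACS versus parental JNG cells; scores +/- to 5+ denote ~5–50% GFP-positive cells.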
# [3] = test system: RAJI cells; assay: JNG assay, co-culture with RAJI cells; assay type: cell-based; settings: JNG cells expressing construct, co-culture with Raji
# Method in brief: as §1
# [4] = test system: U266 cells; assay: JNG NFAT-GFP induction on co-culture with U266; assay type: cell-based
# [5] = test system: Nalm6 cells; assay: JNG assay, co-culture with Nalm6 cells; assay type: cell-based; settings: co-culture with Nalm6
# Method in brief: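 Jurkat NFAT-GFP reporter cells stably expressing lentivirally delivered SARs (puromycin or blasticidin selection) were cocultured with target cells at E:T ~1:2 for ~4–18 h. GFP was read by FACS, and % GFP+ cells were scored against parental reporter cells (+/-, +, 2+…5+ ≈ 5%, 10%, 20%…50%).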
# [6] = test system: HepG2 cells; assay type: cell-based
# [7] = JNG NFAT-GFP background GFP induction (tonic signaling)
# [8] = test system: L363-Luc cells; assay: L363 xenograft in NSG mice; settings: for disease control, L363 xenograft: 0.5 × 10^6 L363-Luc i.v., 3 days later 2 × 10^6 SAR-T i.v., compared to control T cells; for survival, L363 xenograft: mouse, in vivo, iv
# [9] = test system: THP-1 cells; assay: JNG NFAT-GFP induction on co-culture with THP-1
Molecule,NFAT-GFP ASSAY: Raji-CD22-KO [1],NFAT-GFP ASSAY: L363 [2],NFAT-GFP ASSAY: Raji [3],NFAT-GFP ASSAY: U266 [4],NFAT-GFP ASSAY: Nalm6 [5],NFAT-GFP ASSAY: HepG2 [6],background GFP induction (tonic signaling) [7],"disease control, L363 xenograft [8]","survival, L363 xenograft [8]",GFP induction upon co-culture with THP-1 [9]
22144 (protein) MALPVTALLLPLALLLHAARPMLPAPKNLVVSRITEDSARLSWTAPDAAFDSFPIRYIETLIWGEAIWLDVPGSERSYDLTGLKPGTEYAVVITGVKGGRFSSPLVASFTTGTGGGGSGGGGSGGGGSEFDIQMTQSPSSLSASVGDRVTITCRASQDISNYLNWYQQKPGKAVKLLIYYTSILHSGVPSRFSGSGSGTDYTLTISSLQPEDFATYFCQQGNTLPWTFGGGTKVEIKLEDLKNVFPPEVAVFEPSEAEISHTQKATLVCLATGFYPDHVELSWWVNGKEVHSGVCTDPQPLKEQPALNDSRYCLSSRLRVSATFWQNPRNHFRCQVQFYGLSENDEWTQDRAKPVTQIVSAEAWGRADCGFTSESYQQGVLSATILYEILLGKATLYAVLVSALVLMAMVKRKDSRGRAKRSGSGATNFSLLKQAGDVEENPGPTSMDWIWRILFLVGAATGAHSFEVQLVESGGGLVKPGGSLKLSCAASGFAFSIYDMSWVRQAPGKGLEWVAYISSGGGTTYYPDTVKGRFTISRDNAKNTLYLQMSSLRAEDTAMYYCARHSGYGSSYGVLFAYWGQGTLVTVSSTRIQNPDPAVYQLRDSKSSDKSVCLFTDFDSQTNVSQSKDSDVYITDKCVLDMRSMDFKSNSAVAWSNKSDFACANAFNNSIIPEDTFFPSPESSCDVKLVEKSFETDTNLNFQNLSVIGFRILLLKVAGFNLLMTLRLWSSRAKRSGSGVKQTLNFDLLKLAGDVESNPGPSRGHMTEYKPTVRLATRDDVPRAVRTLAAAFADYPATRHTVDPDRHIERVTELQELFLTRVGLDIGKVWVADDGAAVAVWTTPESVEAGAVFAEIGPRMAELSGSRLAAQQQMEGLLAPHRPKEPAWFLATVGVSPDHQGKGLGSAVVLPGVEAAERAGVPAFLETSAPRNLPFYERLGFTVTADVEVPEGPRTWCMTRKPGA,"+/- (refer to approximately 5%, 10%, 20%, 30%, 40% and 50% GFP positive cells)","+ (refer to approximately 5%, 10%, 20%, 30%, 40% and 50% GFP positive cells)","+ (refer to approximately 5%, 10%, 20%, 30%, 40% and 50% GFP positive cells)","3+ (refer to approximately 5%, 10%, 20%, 30%, 40% and 50% GFP positive cells)","+/- (refer to approximately 5%, 10%, 20%, 30%, 40% and 50% GFP positive cells)",–,–,–,–,–
22256 (protein) MGPRLLFWALLCLLGTGPVEAGVTQSPTHLIKTRGQQATLRCSPISGHTSVYWYQQALGLGLQFLLWYDEGEERNRGNFPPRFSGRQFPNYSSELNVNALELEDSALYLCASSLGGPRGLAGLRGDEQFFGPGTRLTVLEGTGGGGSGGGEFDIQMTQSPSSLSASVGDRVTITCKASDHINNWLAWYQQKPGQAPKLLIYGATTLETGVPSRFSGSGSGTDYTLTISSLQPEDFATYYCQQSWNTPWTFGQGTKLEIKRLEDLKNVFPPEVAVFEPSEAEISHTQKATLVCLATGFYPDHVELSWWVNGKEVHSGVCTDPQPLKEQPALNDSRYCLSSRLRVSATFWQNPRNHFRCQVQFYGLSENDEWTQDRAKPVTQIVSAEAWGRADCGFTSESYQQGVLSATILYEILLGKATLYAVLVSALVLMAMVKRKDSRGRAKRSGSGATNFSLLKQAGDVEENPGPTSATMDWIWRILFLVGAATGAHSGPEVQLVESGGGLVQAGGSLRLSCAASGRTFSMGWFRQAPGKEREFVAAITYSGGSPYYADSVKGRFTISRDNAKNTVYLQMNSLKPEDTAVYYCAANPTYGSDWNAENWGQGTQVTVSSGSGGGGSGGGGSGGGGSFEQVQLQQPGAELVKPGASVKMSCKASGYAFSSYWINWMKQKPGQGLEWIGQIYPGDGDTNYNGKFKGRATLTADTSSSTAYMQLSSLTSEDSAVYFCARSITTVVGCAMDYWGQGTSVTVSSTRIQNPDPAVYQLRDSKSSDKSVCLFTDFDSQTNVSQSKDSDVYITDKCVLDMRSMDFKSNSAVAWSNKSDFACANAFNNSIIPEDTFFPSPESSCDVKLVEKSFETDTNLNFQNLSVIGFRILLLKVAGFNLLMTLRLWSSRAKRSGSGVKQTLNFDLLKLAGDVESNPGPSRGHMTEYKPTVRLATRDDVPRAVRTLAAAFADYPATRHTVDPDRHIERVTELQELFLTRVGLDIGKVWVADDGAAVAVWTTPESVEAGAVFAEIGPRMAELSGSRLAAQQQMEGLLAPHRPKEPAWFLATVGVSPDHQGKGLGSAVVLPGVEAAERAGVPAFLETSAPRNLPFYERLGFTVTADVEVPEGPRTWCMTRKPGA,–,–,–,–,–,"RAJI (+/-), HepG2 (-/^+)",–,–,–,–
22146 (protein) MALPVTALLLPLALLLHAARPACEVQLLESGGGLIQPGGSLRLSCAASGFTFSSHAMTWVRQAPGKGLEWVSAISGSGDYTHYADSVKGRFTISRDNSKNTVYLQMNSLRAEDSAVYYCAKDEDGGSLLGHRGQGTLVTVSSGTGGGGSGGGGSGGGGSEFDIQMTQSPSSLSASVGDRVTITCRASQDISNYLNWYQQKPGKAVKLLIYYTSILHSGVPSRFSGSGSGTDYTLTISSLQPEDFATYFCQQGNTLPWTFGGGTKVEIKLEGQPKANPTVTLFPPSSEELQANKATLVCLISDFYPGAVTVAWKADGSPVKAGVETTKPSKQSNNKYAASSYLSLTPEQWKSHRSYSCQVTHEGSTVEKTVAPTECSGRADCGFTSESYQQGVLSATILYEILLGKATLYAVLVSALVLMAMVKRKDSRGRAKRSGSGATNFSLLKQAGDVEENPGPTSATMDWIWRILFLVGAATGAHSGPQVQLQESGGGLAQAGGSLRLSCAASGRTFSMGWFRQAPGKEREFVAAITYSGGSPYYASSVRGRFTISRDNAKNTVYLQMNSLKPEDTAVYYCAANPTYGSDWNAENWGQGTQVTVSSGSGGGGSGGGGSGGGGSFEVQLVESGGGLVKPGGSLKLSCAASGFAFSIYDMSWVRQAPGKGLEWVAYISSGGGTTYYPDTVKGRFTISRDNAKNTLYLQMSSLRAEDTAMYYCARHSGYGSSYGVLFAYWGQGTLVTVSSTRASTKGPSVFPLAPSSKSTSGGTAALGCLVKDYFPEPVTVSWNSGALTSGVHTFPAVLQSSGLYSLSSVVTVPSSSLGTQTYICNVNHKPSNTKVDKRVEPKSCIPEDTFFPSPESSCDVKLVEKSFETDTNLNFQNLSVIGFRILLLKVAGFNLLMTLRLWSSRAKRSGSGVKQTLNFDLLKLAGDVESNPGPSRGHMTEYKPTVRLATRDDVPRAVRTLAAAFADYPATRHTVDPDRHIERVTELQELFLTRVGLDIGKVWVADDGAAVAVWTTPESVEAGAVFAEIGPRMAELSGSRLAAQQQMEGLLAPHRPKEPAWFLATVGVSPDHQGKGLGSAVVLPGVEAAERAGVPAFLETSAPRNLPFYERLGFTVTADVEVPEGPRTWCMTRKPGA,"3+ (refer to approximately 5%, 10%, 20%, 30%, 40% and 50% GFP positive cells)","+ (refer to approximately 5%, 10%, 20%, 30%, 40% and 50% GFP positive cells)","2+ (refer to approximately 5%, 10%, 20%, 30%, 40% and 50% GFP positive cells)","2+ (refer to approximately 5%, 10%, 20%, 30%, 40% and 50% GFP positive cells)","+/- (refer to approximately 5%, 10%, 20%, 30%, 40% and 50% GFP positive cells)",–,–,–,–,–
21853 (protein) MALPVTALLLPLALLLHAARPSYVLTQPPSVSVAPGQTARITCGGNNIGGKSVHWYQQPPGQAPVVVVYDDSDRPSGIPERFSGSNSGNTATLTISRVEAGDEAVYYCQVWDSSSDHVVFGGGTKLTVLLEDLKNVFPPEVAVFEPSEAEISHTQKATLVCLATGFYPDHVELSWWVNGKEVHSGVCTDPQPLKEQPALNDSRYCLSSRLRVSATFWQNPRNHFRCQVQFYGLSENDEWTQDRAKPVTQIVSAEAWGRADCGFTSESYQQGVLSATILYEILLGKATLYAVLVSALVLMAMVKRKDSRGRAKRSGSGATNFSLLKQAGDVEENPGPTSMDWIWRILFLVGAATGAHSFEQLQLQESGPGLVKPSETLSLTCTVSGGSISSSSYFWGWIRQPPGKGLEWIGSIYYSGITYYNPSLKSRVTISVDTSKNQFSLKLSSVTAADTAVYYCARHDGAVAGLFDYWGQGTLVTVSSATRIQNPDPAVYQLRDSKSSDKSVCLFTDFDSQTNVSQSKDSDVYITDKCVLDMRSMDFKSNSAVAWSNKSDFACANAFNNSIIPEDTFFPSPESSCDVKLVEKSFETDTNLNFQNLSVIGFRILLLKVAGFNLLMTLRLWSS,–,–,–,–,–,–,no background GFP induction,superior disease control,prolongation of survival,no GFP induction
21852 (protein) MALPVTALLLPLALLLHAARPSYVLTQPPSVSVAPGQTARITCGGNNLGSKSVHWYQQPPGQAPVVVVYDDSDRPSGIPERFSGSNSGNTATLTISRVEAGDEAVYYCQVWDSSSDHVVFGGGTKLTVLLEDLKNVFPPEVAVFEPSEAEISHTQKATLVCLATGFYPDHVELSWWVNGKEVHSGVCTDPQPLKEQPALNDSRYCLSSRLRVSATFWQNPRNHFRCQVQFYGLSENDEWTQDRAKPVTQIVSAEAWGRADCGFTSESYQQGVLSATILYEILLGKATLYAVLVSALVLMAMVKRKDSRGRAKRSGSGATNFSLLKQAGDVEENPGPTSMDWIWRILFLVGAATGAHSFEQLQLQESGPGLVKPSETLSLTCTVSGGSISSGSYFWGWIRQPPGKGLEWIGSIYYSGITYYNPTLKSRVTISVDTSKNQFSLKLSSVTAADTAVYYCARHDGAVAGLFDYWGQGTLVTVSSATRIQNPDPAVYQLRDSKSSDKSVCLFTDFDSQTNVSQSKDSDVYITDKCVLDMRSMDFKSNSAVAWSNKSDFACANAFNNSIIPEDTFFPSPESSCDVKLVEKSFETDTNLNFQNLSVIGFRILLLKVAGFNLLMTLRLWSS,–,–,–,–,–,–,no background GFP induction,superior disease control,prolongation of survival,no GFP induction
